Each block holds one binder with its values, some of them ahead of it.
Experiments:
APC5531-AA = biological target: T1, APC5531-AA; assay: two-hybrid library CCmax;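 also: natural log of median RNA to DNA barcode read ratio; higher means stronger binding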
T1 chain: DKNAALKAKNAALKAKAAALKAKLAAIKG

APC6088-AA = biological target: T2, APC6088-AA; assay: two-hybrid library CCmax; details: mean of both orientations;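 also: natural log of median RNA to DNA barcode read ratio; higher means stronger binding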
T2 chain: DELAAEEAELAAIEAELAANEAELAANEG

APC7524-AA = biological target: T3, APC7524-AA; assay: two-hybrid library CCmax; details: mean of both orientations;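 also: natural log of median RNA to DNA barcode read ratio; higher means stronger binding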
T3 chain: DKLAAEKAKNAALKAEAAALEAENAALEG

APC8401-AA = biological target: T4, APC8401-AA; assay: two-hybrid library CCmax; details: mean of both orientations;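 also: natural log of median RNA to DNA barcode read ratio; higher means stronger binding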
T4 chain: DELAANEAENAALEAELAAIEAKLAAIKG

APC8516-AA = biological target: T5, APC8516-AA; assay: two-hybrid library CCmax; details: mean of both orientations;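 also: natural log of median RNA to DNA barcode read ratio; higher means stronger binding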
T5 chain: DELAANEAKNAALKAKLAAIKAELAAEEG

APC9141-AA = biological target: T6, APC9141-AA; assay: two-hybrid library CCmax; details: mean of both orientations;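 also: natural log of median RNA to DNA barcode read ratio; higher means stronger binding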
T6 chain: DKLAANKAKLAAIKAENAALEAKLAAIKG

APC9182-AA = biological target: T7, APC9182-AA; assay: two-hybrid library CCmax; details: mean of both orientations
T7 chain: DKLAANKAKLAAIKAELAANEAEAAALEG

APC9291-AA = biological target: T8, APC9291-AA; assay: two-hybrid library CCmax; details: mean of both orientations
T8 chain: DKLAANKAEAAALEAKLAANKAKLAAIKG

APC9806-AA = biological target: T9, APC9806-AA; assay: two-hybrid library CCmax; details: mean of both orientations
T9 chain: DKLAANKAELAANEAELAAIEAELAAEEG

4H754-bN = biological target: T10, 4H754-bN; assay: two-hybrid library CCNG1
T10 chain: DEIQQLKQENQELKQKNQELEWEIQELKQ

4H780-bN = biological target: T11, 4H780-bN; assay: two-hybrid library CCNG1
T11 chain: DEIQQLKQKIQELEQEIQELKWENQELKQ

4H797-bN = biological target: T12, 4H797-bN; assay: two-hybrid library CCNG1
T12 chain: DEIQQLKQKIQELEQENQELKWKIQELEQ

4H855-bN = biological target: T13, 4H855-bN; assay: two-hybrid library CCNG1
T13 chain: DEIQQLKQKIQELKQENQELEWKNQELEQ

4H883-bN = biological target: T14, 4H883-bN; assay: two-hybrid library CCNG1
T14 chain: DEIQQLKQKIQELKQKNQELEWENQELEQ

4H908-bN = biological target: T15, 4H908-bN; assay: two-hybrid library CCNG1
T15 chain: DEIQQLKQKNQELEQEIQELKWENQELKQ

4H918-bN = biological target: T16, 4H918-bN; assay: two-hybrid library CCNG1
T16 chain: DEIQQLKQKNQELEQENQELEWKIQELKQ

4H953-bN = biological target: T17, 4H953-bN; assay: two-hybrid library CCNG1
T17 chain: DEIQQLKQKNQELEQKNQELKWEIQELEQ

4H967-bN = biological target: T18, 4H967-bN; assay: two-hybrid library CCNG1
T18 chain: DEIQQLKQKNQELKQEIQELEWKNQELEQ

4H968-bN = biological target: T19, 4H968-bN; assay: two-hybrid library CCNG1
T19 chain: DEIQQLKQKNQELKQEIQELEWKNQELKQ

4H741-bH = biological target: T20, 4H741-bH; assay: two-hybrid library CCNG1
T20 chain: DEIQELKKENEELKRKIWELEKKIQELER

4H730-bA = biological target: T21, 4H730-bA; assay: two-hybrid library CCNG1
T21 chain: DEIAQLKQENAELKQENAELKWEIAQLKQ

4H796-bA = biological target: T22, 4H796-bA; assay: two-hybrid library CCNG1
T22 chain: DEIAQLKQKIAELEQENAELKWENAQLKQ

4H932-bA = biological target: T23, 4H932-bA; assay: two-hybrid library CCNG1
T23 chain: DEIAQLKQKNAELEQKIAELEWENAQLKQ

4H949-bA = biological target: T24, 4H949-bA; assay: two-hybrid library CCNG1
T24 chain: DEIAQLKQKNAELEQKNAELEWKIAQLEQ

4H3073-AA = biological target: T25, 4H3073-AA; assay: two-hybrid library CCmax
T25 chain: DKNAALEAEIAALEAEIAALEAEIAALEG

4H3438-AA = biological target: T26, 4H3438-AA; assay: two-hybrid library CCmax; details: mean of both orientations
T26 chain: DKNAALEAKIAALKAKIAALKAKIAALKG

4H347-AA = biological target: T27, 4H347-AA; assay: two-hybrid library CCmax; details: mean of both orientations
T27 chain: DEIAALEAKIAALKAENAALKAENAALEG

4H406-AA = biological target: T28, 4H406-AA; assay: two-hybrid library CCmax; details: mean of both orientations
T28 chain: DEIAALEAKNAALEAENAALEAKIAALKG

4H452-AA = biological target: T29, 4H452-AA; assay: two-hybrid library CCmax; details: mean of both orientations
T29 chain: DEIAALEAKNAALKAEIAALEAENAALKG

4H56-AA = biological target: T30, 4H56-AA; assay: two-hybrid library CCmax; details: mean of both orientations
T30 chain: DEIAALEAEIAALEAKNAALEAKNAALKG

4H_APH = biological target: T31, 4H_APH; assay: two-hybrid library CCmax; details: mean of both orientations
T31 chain: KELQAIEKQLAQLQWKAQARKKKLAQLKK

4H_BCR = biological target: T32, 4H_BCR; assay: two-hybrid library CCmax; details: mean of both orientations
T32 chain: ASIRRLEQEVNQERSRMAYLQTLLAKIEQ

4H_GCN4 = assay: two-hybrid library CCmax; details: mean of both orientations
GCN2_T = assay: two-hybrid library CCmax
4H780-bH = biological target: T33, 4H780-bH; assay: two-hybrid library CCNG1
T33 chain: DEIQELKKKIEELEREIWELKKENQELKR

4H797-bH = biological target: T34, 4H797-bH; assay: two-hybrid library CCNG1
T34 chain: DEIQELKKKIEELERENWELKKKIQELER

4H855-bH = biological target: T35, 4H855-bH; assay: two-hybrid library CCNG1
T35 chain: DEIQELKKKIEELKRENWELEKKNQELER

4H918-bH = biological target: T36, 4H918-bH; assay: two-hybrid library CCNG1
T36 chain: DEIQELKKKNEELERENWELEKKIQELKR

4H953-bH = biological target: T37, 4H953-bH; assay: two-hybrid library CCNG1
T37 chain: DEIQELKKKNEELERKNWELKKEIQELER

4H968-bH = biological target: T38, 4H968-bH; assay: two-hybrid library CCNG1
T38 chain: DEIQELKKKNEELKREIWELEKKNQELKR

Chain of 4H_GCN4 (chain, as listed by the source): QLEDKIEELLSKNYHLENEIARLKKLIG

interaction score (APC5531-AA): -1.63 | interaction score (APC6088-AA): -1.44 | interaction score (APC7524-AA): -1.84 | interaction score (APC8401-AA): -1.77 | interaction score (APC8516-AA): -1.6 | interaction score (APC9141-AA): -1.97 | interaction score (APC9182-AA): -1.96 | interaction score (APC9291-AA): -1.72 | interaction score (APC9806-AA): -1.95
Binder: DKNAALKAKNAALKAKAAALKAKLAAIKG [APC5531-AA]

interaction score (4H754-bN): 0.447 | interaction score (4H780-bN): 0.164 | interaction score (4H797-bN): -1.55 | interaction score (4H855-bN): -0.508 | interaction score (4H883-bN): -1.38 | interaction score (4H908-bN): -1.55 | interaction score (4H918-bN): -1.04 | interaction score (4H953-bN): -1.42 | interaction score (4H967-bN): -0.968 | interaction score (4H968-bN): -0.3
Binder: DEIQQLKQENQELKQKNQELEWEIQELKQ [4H754-bN]

interaction score (4H741-bH): 1.26
Binder: DEIQELKKENEELKRKIWELEKKIQELER [4H741-bH]

interaction score (4H730-bA): 1.25 | interaction score (4H796-bA): -0.666 | interaction score (4H932-bA): -0.52 | interaction score (4H949-bA): -0.437
Binder: DEIAQLKQENAELKQENAELKWEIAQLKQ [4H730-bA]

interaction score (4H3073-AA): -0.701 | interaction score (4H3438-AA): 1.51 | interaction score (4H347-AA): -1.33 | interaction score (4H406-AA): -1.6 | interaction score (4H452-AA): -1.22 | interaction score (4H56-AA): -1.28 | interaction score (4H_APH): 0.197 | interaction score (4H_BCR): -1.37 | interaction score (4H_GCN4): -0.626 | interaction score (GCN2_T): -1.05
Binder: DKNAALEAEIAALEAEIAALEAEIAALEG [4H3073-AA]

interaction score (4H780-bH): 1.6 | interaction score (4H797-bH): -0.654 | interaction score (4H855-bH): 0.0924 | interaction score (4H918-bH): 0.556 | interaction score (4H953-bH): -0.153 | interaction score (4H968-bH): -0.28
Binder: DEIQELKKKIEELEREIWELKKENQELKR [4H780-bH]
